Data on four substances can be found in patent US20030077318A1.

What is called Kd is the concentration at which binding is half-saturated.

For the experiment, the target named is soluble H-2K^b (K^bsol), heterodimer of truncated K^b heavy chain and murine β-2 microglobulin, purified empty from Drosophila cells (murine) (UniProt P01901). The experiment can be described thus: competitive RIA against [^125I]VSV-8 on K^bsol, P30 gel filtration, 23° C. For orientation: Size exclusion chromatography separates by hydrodynamic size, large species first.
The substance OVA-8 (peptide) yielded a Kd of 4.1 nM.

OVA-9C (peptide): the Kd is 11 nM.

In turn, OVA-10C (peptide) showed an equilibrium dissociation constant (Kd) of 14 nM.

The substance OVA-10N (peptide) gave a Kd of 280 nM.
